The source of these data is CN113004395A (JIANGSU PROVINCIAL CENTER FOR DISEASE CONTROL AND …, dated 2021).

For assay [1], the target named is T1, 重组SARS-CoV2核蛋白(NP) (SARS-CoV-2, UniProt P0DTC9 1-419). Kind of assay: double-antibody sandwich lateral-flow strip, paired with JS08.
Assay [2] deals with T1, 重组SARS-CoV2核蛋白(NP).
Assay [3] has as its target 重组SARS-CoV2核蛋白(NP) (SARS-CoV-2, UniProt P0DTC9 1-419). The source holds these as a separate data set.

B1: JS13 (antibody, V domains shown)
VH: QVQLVQSGAEVKKPGSSVKVSCKASGGTFSSYAISWVRQAPGQGLEWMGGIIPIFGTANYAQKFQGRVTITADESTSTAYMELSSLRSEDTAVYYCARGGWVICSSTSCYTKYSYYGMDVWGQGTTVTVSS
VL: QSVLTQPPSVSAAPGQKVTISCSGSSSNIGNNYVSWYQQLPGTAPKLLIYDNNKRPSGIPDRFSGSKSGTSATLGITGLQTGDEADYYCGTWDSSLIARLFGGGTKLTVL
As for B1, in the assay with 重组SARS-CoV2核蛋白(NP) [1], the “检测限 (detection limit for NP)” value is under 2 ng/mL. Further, in the assay with 重组SARS-CoV2核蛋白(NP) [2], the Kd (commonly the equilibrium constant for the complex coming apart) amounted to 0.12 nM; the koff (in general, the rate constant with which the complex falls apart) came out at 9.66e-05 s⁻¹; the kon (as a rule, the rate constant with which the complex forms) was 805000 M⁻¹ s⁻¹.

B2: JS11 (antibody, V domains shown)
VH: EVQLLESGGGVVQPGRSLRLSCAASGFTFSSYGMHWVRQAPGKGLEWVAVIWYDGSNKYYADSVKGRFTISRDNSKNTLYLQMNSLRAEDTAVYYCVGPLMVRGVIIPWGQGTLVTVSS
VL: not shown
Take B2: in the assay with 重组SARS-CoV2核蛋白(NP) [2], the affinity, expressed as Kd, was 0.292 nM; the koff worked out at 5.62e-05 s⁻¹; the on-rate constant (kon) came to 193000 M⁻¹ s⁻¹.

B3: JS08 (antibody, V domains shown)
VH: QVQLVQSGPGLVKPSETLSLTCTVSGGSISSYYWSWIRQPPGKGLEWIGNIYYSGSTDYNPSLKSRVTISVDTSKNQFSLRLSSVTAADTAVYYCAREQFSGGDYEGFDFWGQGTLVTVSS
VL: QSVLTQEPSVSGAPGQRVTISCTGSSSNIGAGYDVHWYQQLPGTAPKLLIYGNSNRPSGVPDRFSGSKSGTSASLAITGLQAEDEADYYCQSYDSSLSGWVFGGGTKLTVL
Consider B3, for which, in the assay with 重组SARS-CoV2核蛋白(NP) [3], binding was put at a Kd of 0.19 nM, the koff came to 5.77e-06 s⁻¹ and the kon stood at 30300 M⁻¹ s⁻¹.

B4: JS01 (antibody, V domains shown)
VH: QVQLVESGAEVKKPGSSVKVSCKASGGTFSSYAISWVRQAPGQGLEWMGGIIPIFGTANYAQKFQGRVTITADESTSTAYMELSSLRSEDTAVYYCARGGWRSSGYHDYSYYGMDVWGQGTTVTVSS
VL: not shown
Turning to B4, the “检测限 (detection limit for NP)” value with 重组SARS-CoV2核蛋白(NP) [1] was under 2 ng/mL. In the assay with 重组SARS-CoV2核蛋白(NP) [2], this molecule showed a Kd of 0.22 nM, a koff of 0.000479 s⁻¹ and a kon of 2.18e+06 M⁻¹ s⁻¹.

B5: JS05 (antibody, V domains shown)
VH: EVQLLESGGGVVQPGRSLRLSCAASGFIFSSYGMHWVRQAPGKGLEWVAVIWYDGSNKYYADSVKGRFTISRDNSKNTLYLQMNSLRAEDTAVYYCARDLRGPTGWTFDYWGQGTLVTVSS
VL: ENVLTQSPATLSLSPGERATLSCRASQSVSNYLAWYQQRPGQAPRLLIYDSSNRATGIPARFSGSGSGTDFTLTISSLEPEDFAVYYCQHRSNWKITFGQGTRLEIK
As to B5, the “检测限 (detection limit for NP)” value in the assay with 重组SARS-CoV2核蛋白(NP) [1] was under 2 ng/mL. For the same molecule, in the assay with 重组SARS-CoV2核蛋白(NP) [2], the affinity, expressed as Kd, was 0.409 nM; the koff turned out to be 0.000243 s⁻¹; the kon was 594000 M⁻¹ s⁻¹.

B6: JS12 (antibody, V domains shown)
VH: EVQLLESGGGVVQPGRSLRLSCAASGFTFSSYGMHWVRQAPGKGLEWVAVIWYDGSNKYYADSVKGRFTISRDNSKNTLYLQMNSLRAEDTAVYYCARDGSGSYYWGSLDYWGQGTLVTVSS
VL: ENVLTQSPATLSLSPGERATLSCRASQSVSSYLAWYQQKPGQAPRLLIYGASNRATGIPARFSGSGSGTDFTLTISSLEPEDFAVYYCQQRSNWPWTFGQGTKVEIK
Consider B6, for which the “检测限 (detection limit for NP)” value with 重组SARS-CoV2核蛋白(NP) [1] is under 2 ng/mL. In the assay with 重组SARS-CoV2核蛋白(NP) [2], the Kd was 0.15 nM, the koff was found to be 7.33e-05 s⁻¹ and the kon was determined as 488000 M⁻¹ s⁻¹.

B7: JS14 (antibody, V domains shown)
VH: EVQLLESGGGVVQPGRSLRLSCAASGFTFSSYGMHWVRQAPGKGLEWVAVIWYDGSNKYYADSVKGRFTISRDNSKNTLYLQMNSLRAEDTAVYYCARDGSGSYYWGSLDYWGQGTLVTVSS
VL: not shown
On to B7, for which, in the assay with 重组SARS-CoV2核蛋白(NP) [1], the “检测限 (detection limit for NP)” value was under 2 ng/mL. In the assay with 重组SARS-CoV2核蛋白(NP) [2], this molecule yielded a dissociation constant (Kd) of 0.178 nM, a koff of 0.000221 s⁻¹ and a kon of 1.24e+06 M⁻¹ s⁻¹.

B8: JS06 (antibody, V domains shown)
VH: EVQLLESGGGVVQPGRSLRLSCAASGFTFSSYGMHWVRQAPGKGLEWVAVIWYDGSNKYYADSVKGRFTISRDNSKNTLYLQMNSLRAEDTAVYYCARAAYGPYYGMDVWGQGTTVTVSS
VL: not shown
Turning to B8, in the assay with 重组SARS-CoV2核蛋白(NP) [3], binding was put at a Kd of 16.1 nM, the koff is 0.00258 s⁻¹ and the kon is 161000 M⁻¹ s⁻¹.
